Data reported in patent publication US20240116985A1 (published 2024).
Starred links: 1 amine or outer side, 2 acyl side, 3 side chain; linkers in the order of their positions; H or OH if unused. Positions of bridges follow the written chain, without caps; N, C: chain ends. Non-standard residues stand in square brackets, D forms with d. Primed or numbered codes have the meaning given here. *: point of attachment. PyrS2″ = (S)-3-amino-1-((pent-4-en-1-yloxy)carbonyl)pyrrolidine-3-carboxylic acid (stapling residue), C=CCCCOC(=O)N1CC[C@@](N[*:1])(C(=O)[*:2])C1; HypBzEs3OAllyl = (2R,4S)-4-((3-(allyloxy)benzoyl)oxy)pyrrolidine-2-carboxylic acid, C=CCOc1cccc(C(=O)O[C@H]2C[C@H](C(=O)[*:2])N([*:1])C2)c1; B5(4) = 2,2-bis(4-pentenyl)glycine = 2-amino-2-(pent-4-en-1-yl)hept-6-enoic acid (stitching residue), C=CCCCC(CCCC=C)(N[*:1])C(=O)[*:2]; TfeGA = (S)-2-amino-3-((carboxymethyl)(2,2,2-trifluoroethyl)amino)propanoic acid, O=C([C@H](CN(CC(=O)[*:3])CC(F)(F)F)N[*:1])[*:2]; PyrS2 = (S)-3-amino-1-((pent-4-en-1-yloxy)carbonyl)pyrrolidine-3-carboxylic acid, C=CCCCOC(=O)N1CC[C@@](N[*:1])(C(=O)[*:2])C1; (EtSO2Ppz)GlnR = Glu side chain amide with 4-(ethylsulfonyl)piperazine, CCS(=O)(=O)N1CCN(C(=O)CC[C@H](N[*:1])C(=O)[*:2])CC1; (bismethoxyethylamine)GlnR″ = N5,N5-bis(2-methoxyethyl)-L-glutamine, COCCN(CCOC)C(=O)CC[C@H](N[*:1])C(=O)[*:2]; B5(3) = 2,2-bis(4-pentenyl)glycine (stitching residue), C=CCCCC(CCCC=C)(N[*:1])C(=O)[*:2]; B5(28) = 2,2-bis(4-pentenyl)glycine, C=CCCCC(CCCC=C)(N[*:1])C(=O)[*:2]; Phe(3-COOH) = N[C@@H](Cc1cccc(C(=O)O)c1)C(=O)O; 2F3MeF = Cc1cccc(C[C@H](N[*:1])C(=O)[*:2])c1F; Phe(2-CF3) = N[C@@H](Cc1ccccc1C(F)(F)F)C(=O)O; Phe(2-Cl) = N[C@@H](Cc1ccccc1Cl)C(=O)O; Phe(3-F) = N[C@@H](Cc1cccc(F)c1)C(=O)O; Bta = N[C@@H](Cc1csc2ccccc12)C(=O)O; αAllylPro = C=CC[C@@]1(C(=O)O)CCCN1; isoindolineGlnR = not defined here; tBuAla = CC(C)(C)C[C@H](N)C(=O)O; 3Thi = N[C@@H](Cc1ccsc1)C(=O)O; S8 = C=CCCCCCC[C@](C)(N)C(=O)O; PyrS2(4) = not defined here; Abu = CC[C@H](N)C(=O)O; Moc = COC(=O)*

T1: B-cat-Halo (beta-catenin HaloTag NanoBRET construct expressed in HEK293 cells) (UniProt P35222 1-781)
T1 sequence (looked up): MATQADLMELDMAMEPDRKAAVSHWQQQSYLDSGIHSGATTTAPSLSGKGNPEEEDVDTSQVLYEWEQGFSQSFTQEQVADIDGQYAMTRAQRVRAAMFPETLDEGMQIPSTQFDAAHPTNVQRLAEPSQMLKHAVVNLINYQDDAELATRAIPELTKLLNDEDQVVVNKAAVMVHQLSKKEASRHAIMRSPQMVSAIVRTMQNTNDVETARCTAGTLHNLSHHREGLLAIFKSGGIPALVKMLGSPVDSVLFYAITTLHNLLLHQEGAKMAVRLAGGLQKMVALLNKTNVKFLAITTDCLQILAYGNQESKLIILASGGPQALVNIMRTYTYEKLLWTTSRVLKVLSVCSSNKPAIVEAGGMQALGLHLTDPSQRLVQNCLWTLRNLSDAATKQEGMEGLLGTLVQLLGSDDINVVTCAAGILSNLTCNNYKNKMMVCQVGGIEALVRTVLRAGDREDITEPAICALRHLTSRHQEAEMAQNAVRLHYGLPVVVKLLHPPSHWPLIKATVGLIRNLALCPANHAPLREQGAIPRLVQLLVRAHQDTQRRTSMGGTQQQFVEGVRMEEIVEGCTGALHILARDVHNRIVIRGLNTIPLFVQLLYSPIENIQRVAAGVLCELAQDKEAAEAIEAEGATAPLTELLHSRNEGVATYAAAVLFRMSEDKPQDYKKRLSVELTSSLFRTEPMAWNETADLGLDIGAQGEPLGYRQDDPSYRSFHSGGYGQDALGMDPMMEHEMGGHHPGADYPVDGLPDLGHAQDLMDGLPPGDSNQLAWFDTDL

T2: Bcat-Halo (UniProt P35222 1-781)
T2 sequence (looked up): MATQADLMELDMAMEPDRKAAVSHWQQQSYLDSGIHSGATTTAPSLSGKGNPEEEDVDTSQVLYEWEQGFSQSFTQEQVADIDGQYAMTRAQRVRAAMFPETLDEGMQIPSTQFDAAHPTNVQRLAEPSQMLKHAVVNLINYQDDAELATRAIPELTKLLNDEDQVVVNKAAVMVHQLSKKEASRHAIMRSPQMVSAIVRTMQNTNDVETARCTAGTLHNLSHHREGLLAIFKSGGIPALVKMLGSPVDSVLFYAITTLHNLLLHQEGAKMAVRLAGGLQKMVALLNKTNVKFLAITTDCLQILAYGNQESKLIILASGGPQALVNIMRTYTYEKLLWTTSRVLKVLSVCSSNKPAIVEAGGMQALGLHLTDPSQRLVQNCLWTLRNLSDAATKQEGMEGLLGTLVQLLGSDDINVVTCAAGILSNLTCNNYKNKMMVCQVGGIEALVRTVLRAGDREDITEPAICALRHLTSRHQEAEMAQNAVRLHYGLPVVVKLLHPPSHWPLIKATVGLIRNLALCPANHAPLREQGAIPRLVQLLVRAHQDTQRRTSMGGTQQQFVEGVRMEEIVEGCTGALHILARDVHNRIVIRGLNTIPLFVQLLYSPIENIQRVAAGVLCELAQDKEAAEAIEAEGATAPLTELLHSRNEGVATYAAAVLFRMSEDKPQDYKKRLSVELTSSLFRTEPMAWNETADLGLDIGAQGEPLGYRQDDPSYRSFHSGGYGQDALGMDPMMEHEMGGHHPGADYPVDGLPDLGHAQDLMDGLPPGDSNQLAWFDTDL

T3: beta-catenin, full-length (Uniprot ID P35222) (Homo sapiens (Human), UniProt P35222 2-781)
T3 construct: tags are not described; also called bCat; B-Catenin
T3 sequence: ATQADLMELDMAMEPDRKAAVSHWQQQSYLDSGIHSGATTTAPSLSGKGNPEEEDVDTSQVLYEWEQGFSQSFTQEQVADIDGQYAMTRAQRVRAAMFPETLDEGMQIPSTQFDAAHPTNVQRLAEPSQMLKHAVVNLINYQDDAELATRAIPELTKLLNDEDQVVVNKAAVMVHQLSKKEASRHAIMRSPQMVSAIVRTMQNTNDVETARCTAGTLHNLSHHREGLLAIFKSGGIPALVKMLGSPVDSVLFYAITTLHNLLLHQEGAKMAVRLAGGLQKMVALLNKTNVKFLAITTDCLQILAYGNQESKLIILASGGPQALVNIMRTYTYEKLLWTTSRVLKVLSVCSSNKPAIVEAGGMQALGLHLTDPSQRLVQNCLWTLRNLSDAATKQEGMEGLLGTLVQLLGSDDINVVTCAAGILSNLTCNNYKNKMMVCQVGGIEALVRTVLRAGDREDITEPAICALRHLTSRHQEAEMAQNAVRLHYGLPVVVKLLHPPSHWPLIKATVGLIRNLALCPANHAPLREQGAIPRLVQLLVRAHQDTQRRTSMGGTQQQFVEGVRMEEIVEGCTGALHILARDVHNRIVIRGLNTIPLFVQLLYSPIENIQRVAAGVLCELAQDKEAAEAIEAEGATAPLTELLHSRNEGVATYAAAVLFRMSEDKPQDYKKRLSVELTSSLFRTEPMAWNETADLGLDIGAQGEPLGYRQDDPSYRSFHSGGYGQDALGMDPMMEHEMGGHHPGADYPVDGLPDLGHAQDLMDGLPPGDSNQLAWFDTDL

B1: I-2316 (peptide)
peptide: Ac-[αAllylPro]D[tBuAla][B5(4)]D[Phe(3-COOH)][(TfePpz)GlnR]AFL[PyrS2(4)][2F3MeF][Bta]A-NH2
modifications: staple 1-4, 4-11; reading uncertain; also: printed as Ac-PL3-Asp-Npg-B5-Asp-3COOHF-[TfePpz]GlnR-Ala-Phe-Leu-PyrS2-2F3MeF-BztA-Ala-NH2
B2: I-285: Ac-PL3-Asp-Ala-B5-Asp-Asp-Ala-Ala-Phe-Val-S8-His-Trp-Gln-NH2 (peptide)
peptide: XDAXDDAAFVXHWQ
modifications: not fully specified; N-terminal Ac; PL3 at 1, B5 at 4, S8 at 11 (olefin-metathesis staples 1-4 and 4-11); C-terminal amide
notes: Stapled (stitched) peptide
B3: I-292: Ac-PL3-Asp-Ala-B5-Asp-Asp-Ala-Ala-Phe-Val-S8-Phe-Trp-Ala-NH2 (peptide)
peptide: XDAXDDAAFVXFWA
modifications: not fully specified; N-terminal Ac; PL3 at 1, B5 at 4, S8 at 11 (olefin-metathesis staples 1-4 and 4-11); C-terminal amide
notes: Stapled (stitched) peptide
B4: I-291: Ac-PL3-Asp-Ala-B5-Asp-Asp-Ala-Ala-Phe-Val-S8-Phe-Trp-Ala-NH2 (peptide)
peptide: XDAXDDAAFVXFWA
modifications: not fully specified; N-terminal Ac; PL3 at 1, B5 at 4, S8 at 11 (olefin-metathesis staples 1-4 and 4-11); C-terminal amide
notes: Stapled (stitched) peptide
B5: I-286: Ac-PL3-Asp-Ala-B5-Asp-Asp-Ala-Ala-Phe-Ala-S8-Phe-Trp-Ala-NH2 (peptide)
peptide: XDAXDDAAFAXFWA
modifications: not fully specified; N-terminal Ac; PL3 at 1, B5 at 4, S8 at 11 (olefin-metathesis staples 1-4 and 4-11); C-terminal amide
notes: Stapled (stitched) peptide
B6: I-290: Ac-PL3-Asp-Ala-B5-Asp-Asp-Ala-Ala-Phe-Val-S8-Phe-Trp-NH2 (peptide)
peptide: XDAXDDAAFVXFW
modifications: not fully specified; N-terminal Ac; PL3 at 1, B5 at 4, S8 at 11 (olefin-metathesis staples 1-4 and 4-11); C-terminal amide
notes: Stapled (stitched) peptide

Key:
[1] = target: T1, B-cat-Halo (beta-catenin HaloTag …); assay: cell-based or functional assay
Bcat-Halo = target: T2, Bcat-Halo; assay: cell-based or functional assay
[2] = target: T3, beta-catenin, full-length (Uniprot ID …); assay: fluorescence polarization competition, displacement of 5FAM-TCF4 10-53 from full-length beta-catenin
Experimental: The plate was incubated protected from light for 60 minutes at 20° C. prior to read. Reads were performed on a CLARIOstar plate reader (BMG Labtech) in duplicate, and data were fitted to a 1:1 binding model with hill slope using an in-house script. All provided concentrations are final concentrations.

| Binder | NanoBRET Abs IC50 (Bcat-Halo) | IC50 [2] | other results |
| --- | --- | --- | --- |
| Ac-[αAllylPro]D[tBuAla][B5(3)]D[Phe(3-COOH)]AAF[Abu][PyrS2″][2F3MeF][Bta][(NHEt)GlnR]A-NH2 (staple 1-4, 4-11) [Ac-PL3-Asp-Npg-B5-Asp-3COOHF-Ala-Ala-Phe-Abu-PyrS2-2F3MeF-BztA-[NHEt]GlnR-Ala-NH2] |  |  | NanoBRET Abs IC50 [1]: 1.8 µM |
| B1 | 1.6 µM |  |  |
| Ac-[αAllylPro]D[tBuAla][B5(3)]D[Phe(3-COOH)]AAFL[PyrS2″][Phe(2-CF3)][SbMe2NapA]Q-NH2 (staple 1-4, 4-11) [Ac-PL3-Asp-Npg-B5-Asp-3COOHF-Ala-Ala-Phe-Leu-PyrS2-2F3MeF-SbMe2NapA-Gln-NH2] |  |  | NanoBRET Abs IC50 [1]: 16.5 µM |
| Ac-[αAllylPro]D[tBuAla][B5(4)]D[Phe(3-COOH)][(4Pippip)GlnR]AFL[PyrS2″][2F3MeF][Bta]A-NH2 (staple 1-4, 4-11) [I-2317] | 18.8 µM |  |  |
| Ac-[αAllylPro]D[tBuAla][B5(28)]D[Phe(3-COOH)][isoindolineGlnR]AFL[PyrS2][2F3MeF][Bta]A-NH2 (staple 1-4, 4-11; reading uncertain) [I-2320] | 2.7 µM |  |  |
| Moc-[αAllylPro]D[tBuAla][B5(3)]D[Phe(3-COOH)]AAFL[PyrS2″][Phe(2-Cl)][Bta]A-NH2 (staple 1-4, 4-11) [I-2324] | 14.8 µM |  |  |
| Ac-[αAllylPro]D[tBuAla][B5(4)]D[Phe(3-COOH)][(bismethoxyethylamine)GlnR″]AFL[PyrS2″][2F3MeF][Bta]A-NH2 (staple 1-4, 4-11) [I-2322] | 1.8 µM |  |  |
| Ac-[αAllylPro]D[tBuAla][B5(4)]D[Phe(3-COOH)][(EtSO2Ppz)GlnR]AFL[PyrS2″][2F3MeF][Bta]A-NH2 (staple 1-4, 4-11) [I-2321] | 1.7 µM |  |  |
| Ac-[αAllylPro]DA[B5(4)]DDAA[Phe(3-F)]V[S8]FWQ-NH2 (staple 1-4, 4-11; also: staple isomer composition, later HPLC peak, Stapled (stitched) peptide) [I-265: Ac-PL3-Asp-Ala-B5-Asp-Asp-Ala-Ala-3FF-Val-S8-Phe-Trp-Gln-NH2] |  | 3.76 µM |  |
| B2 |  | 5 µM |  |
| B3 |  | 1.87 µM |  |
| B4 |  | 3.13 µM |  |
| B5 |  | 4.48 µM |  |
| Ac-[HypBzEs3OAllyl]D[tBuAla][B5(3)]D[TfeGA]AAFL[PyrS2″][3Thi][Bta]Q-NH2 (staple 1-4, 4-11; also: staple -CH=CH- reduced to -CH2-CH2-) [I-2328] | > 20 µM |  |  |
| B6 |  | 3.29 µM |  |
